Assay [1] addresses T1, human CD39 (full length, on cells) (human, UniProt P49961 1-510).
T1 construct: Recombinant on CHOK1-hCD39 cells or natural on SK-MEL-28, SK-MEL-5 and MOLP-8 cells; the cell line is named under assay; also called hCD39; ENTPD1
T1 sequence: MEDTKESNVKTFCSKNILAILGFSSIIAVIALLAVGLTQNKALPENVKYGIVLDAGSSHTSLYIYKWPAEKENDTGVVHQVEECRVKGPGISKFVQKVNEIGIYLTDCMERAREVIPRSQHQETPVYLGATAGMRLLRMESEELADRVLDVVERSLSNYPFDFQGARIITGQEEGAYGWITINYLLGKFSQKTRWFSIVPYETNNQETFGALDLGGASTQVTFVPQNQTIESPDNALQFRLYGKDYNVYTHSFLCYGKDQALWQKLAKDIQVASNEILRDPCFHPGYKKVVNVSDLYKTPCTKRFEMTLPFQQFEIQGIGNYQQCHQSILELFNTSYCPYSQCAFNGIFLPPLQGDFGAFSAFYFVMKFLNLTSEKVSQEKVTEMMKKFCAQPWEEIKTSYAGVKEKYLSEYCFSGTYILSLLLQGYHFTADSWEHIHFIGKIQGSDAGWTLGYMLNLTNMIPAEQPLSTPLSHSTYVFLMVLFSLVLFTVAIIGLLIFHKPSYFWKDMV
The assay can be described thus: FACS, MOLP-8 cells. On the procedure: Similarly, human CD39 expressing cells SK-MEL-5, SK-MEL-28 or MOLP-8, were incubated with a gradient concentration of anti-CD39 antibodies for 30 minutes at 4° C. Cells were washed 3 times using FACS buffer and next incubated with fluorescence labelled secondary antibody (goat-anti-mouse IgG or goat anti-human IgG) for 30 minutes at 4° C. Cells were washed 3 times and then re-suspended in FACS buffer and analyzed by flow cytometry analysis on BD Celesta. Data plotted and analyzed using GraphPad Prism 8.02.
The binding affinity of the humanized antibodies for c23 was determined by FACS, using similar methods as described in Example 3.2. The c23 humanized antibody clones showing good binding affinity are listed in below Table 19 and Table 20, and also shown in FIGS. 7A, 7B and FIG. 8. EC₅₀ is the concentration of the indicated antibodies to reach 50% of the signal in this assay.
For orientation: Flow cytometry measures light scatter and fluorescence of single cells or particles in a stream.

Assay [2] addresses T2, ENTPD3 protein (Homo sapiens (Human), UniProt O75355 44-485).
T2 construct: also called CD39L3; ENTPDase 3
T2 sequence: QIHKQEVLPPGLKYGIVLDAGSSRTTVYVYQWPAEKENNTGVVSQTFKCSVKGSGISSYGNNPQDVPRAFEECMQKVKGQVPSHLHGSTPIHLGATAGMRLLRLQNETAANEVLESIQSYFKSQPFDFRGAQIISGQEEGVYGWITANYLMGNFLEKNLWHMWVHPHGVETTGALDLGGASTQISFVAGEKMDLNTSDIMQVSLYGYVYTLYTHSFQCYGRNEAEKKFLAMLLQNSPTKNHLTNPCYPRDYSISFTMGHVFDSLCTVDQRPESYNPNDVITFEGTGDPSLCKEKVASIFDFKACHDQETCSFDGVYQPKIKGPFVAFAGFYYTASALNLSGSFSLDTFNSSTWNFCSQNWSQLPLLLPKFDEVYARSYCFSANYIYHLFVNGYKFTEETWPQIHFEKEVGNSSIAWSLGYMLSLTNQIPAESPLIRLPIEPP
Briefly: ELISA on coated ENTPD3 protein, anti-hIgG-HRP, OD450. The protocol:
(§1) Binding specificity of the purified humanized antibody hu23.H5L5 against ENTPDase family members was detected by ELISA assay. Briefly, ENTPD1 (i.e. CD39) and ENTPD 2/3/5/6 proteins were coated on 96-well ELISA plates at 4° C. overnight, next day the ELISA plates were washed and blocked using blocking buffer (1% BSA in PBS with 0.05% Tween20) 200 μL/well for 2 hours. Then hu23.H5L5 gradients were duplicated into the wells and stained with anti-hIgG-HRP. After plate washing, the plates were developed with TMB substrate and stopped by 2N HCl. The OD450 were recorded using plate reader and platted by Graphpad Prism.

Assay [3] deals with T3, human CD39 (protein; form not stated) (human, UniProt P49961 38-478, limits assumed).
T3 construct: also called ENTPD1; ENTPDase 1
T3 sequence: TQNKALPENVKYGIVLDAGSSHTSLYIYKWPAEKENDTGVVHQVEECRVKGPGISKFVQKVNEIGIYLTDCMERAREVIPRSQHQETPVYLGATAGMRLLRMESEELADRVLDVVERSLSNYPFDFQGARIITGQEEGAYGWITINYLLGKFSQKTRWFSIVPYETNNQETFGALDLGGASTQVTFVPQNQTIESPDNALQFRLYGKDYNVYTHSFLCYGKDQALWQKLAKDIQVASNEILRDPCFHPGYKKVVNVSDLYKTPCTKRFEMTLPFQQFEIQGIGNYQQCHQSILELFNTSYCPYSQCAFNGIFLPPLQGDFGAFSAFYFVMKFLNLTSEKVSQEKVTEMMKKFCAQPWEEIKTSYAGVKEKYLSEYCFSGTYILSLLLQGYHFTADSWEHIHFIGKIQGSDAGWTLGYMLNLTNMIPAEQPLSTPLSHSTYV
The assay can be described thus: ELISA on coated ENTPD1 (CD39) protein, anti-hIgG-HRP, OD450. The protocol:
as §1

In assay [4] the target is T4, ENTPD2 protein (Homo sapiens (Human), UniProt Q9Y5L3 29-462).
T4 construct: also called CD39L1; ENTPDase 2
T4 sequence: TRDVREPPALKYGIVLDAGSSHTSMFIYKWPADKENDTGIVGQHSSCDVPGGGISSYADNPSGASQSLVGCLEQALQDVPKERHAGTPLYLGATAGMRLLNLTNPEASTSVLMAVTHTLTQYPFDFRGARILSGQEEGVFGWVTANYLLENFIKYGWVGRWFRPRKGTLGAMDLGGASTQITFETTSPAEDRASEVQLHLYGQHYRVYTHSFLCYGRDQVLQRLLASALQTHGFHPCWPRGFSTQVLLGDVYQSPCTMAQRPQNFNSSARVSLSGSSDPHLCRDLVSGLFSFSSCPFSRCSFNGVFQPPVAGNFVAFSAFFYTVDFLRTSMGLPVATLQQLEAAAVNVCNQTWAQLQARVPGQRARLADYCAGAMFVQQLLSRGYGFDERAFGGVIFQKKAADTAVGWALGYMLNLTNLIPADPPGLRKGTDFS
Briefly: ELISA on coated ENTPD2 protein, anti-hIgG-HRP, OD450. The protocol:
as §1
For orientation: In an ELISA, binding on a coated surface is turned into a signal by an enzyme label.

Assay [5] addresses T3, human CD39 (protein; form not stated). Briefly: Octet (BLI). (In general: In BLI a coated tip is dipped into the sample, and binding shifts an interference pattern.)

Usually EC50 stands for the concentration needed to bring the measured effect to its halfway point. A low value points to higher potency in that assay. As a reminder, the EC50 (read off the curve) is the concentration at which the effect is half-maximal. Lower therefore signals greater potency. As usually defined, the Kd is the concentration at which binding is half-saturated.

B1: hu23.H5L5 (antibody, V domains shown)
VH: QVQLVQSGAEVKKPGASVKVSCKASGYNLKDTFLHWVRQAPGQGLEWMGRIDPANGNIKYDPKFQGRVTITADTSANTAYMELISLRSEDTAVYYCANSPYYYGSGYRIFDVWGQGTTVTVSS
VL: QIVLTQSPATLSLSPGERATLSCSAFSSVNYMHWYQQKPGQAPRLLIYTTSNLASGIPTRFSGSGSGTSYTLTISSLEPEDFAVYYCQQRSTYPFTFGQGTKLEIK
notes: humanized c23
On to B1, for which the 50% effective concentration (EC50) in assay [1] was 0.177 nM. Further, the binding result in assay [2] and in assay [4] was “no binding (tested: about 66 nM)” throughout. Moreover, the “EC50 (read off the curve)” value in assay [3] is approximately 4 nM.

B2: mAb14 (antibody, V domains shown)
VH: EVKLEESGGGLVQPGGSMKLSCVASGFTFSKYWMNWVRQSPEKGLEWVAEIRLKSNKYGTHYAESVKGRFTISRDDSKNNVYLQMNNLRPEDTGIYYCTTQLDLYWFFDVWGAGTTVTVSS
VL: DIVMTQSPAILSVTPGDRVSLSCRASQSISDYLHWYQQKSHESPRLLIKYASQSISGIPSRFSGSGSGSNFTLSINSVEPEDVGVYFCQNGHSLPLTFGAGTKLELR
notes: mouse hybridoma antibody
B2 returned a Kd in assay [5] of 0.24 nM.

The record behind these values is patent US20210388105A1 (ELPISCIENCE SUZHOU BIOPHARMA, published 2021).
